In patent US20240066137A1, “NOVEL PROTEIN CONJUGATE, AND USE THEREOF FOR PREVENTING OR TREATING NONALCOHOLIC STEATOHEPATITIS, OBESITY AND DIABETES” (ONEGENE BIOTECHNOLOGY INC., priority 2020, published 2024):
Like-named read-outs stand apart in the source and are kept apart here.

Target: FGFR1/KLB (Homo sapiens, UniProt P11362+Q86Z14)
Experiment: FGFR1/KLB functional assay (PathHunter)
Type: cell-based
Protocol: The cells were cultured to 70-80% full in a T-75 flask. The medium was removed and washed with 5 mL of the pre-warmed PBS. PBS was removed, and 2 mL of AssayComplete cell detachment reagent was added, and then incubated in an incubator at 37° C. and 5% CO2 for 3 minutes, and the attached cells were detached. It was mixed with 6 mL of AssayComplete cell plating 0 reagent, and the mixture was transferred to a 15 mL tube, centrifuged at 1,000 rpm for 3 minutes, and then again released in 5 mL of cell plating reagent. The number of cells was counted, and the concentration was allowed to be 500,000 cells/mL. It was transferred to a reservoir, and 40 μL per well was dispensed into a white 96-well half-area cell culture plate using a multi-channel pipette (20,000 cells/well). Only 40 μL of cell plating reagent was dispensed into the blank well. The cells were incubated in an incubator at 37° C. and 5% CO2 for 24 hours to allow to be attached.
10 μL of each of rhFGF21 (5×) and test sample (5×) prepared by 4-fold serial dilution was dispensed in duplicate and cultured at room temperature for 4 hours. 10 μL of AssayComplete cell plating 0 reagent was added to the control and blank wells. After the culture was completed, the medium was removed, and 50 μL of AssayComplete cell plating 0 reagent was added. 30 μL of Detection reagent was dispensed and reacted in a state where light was blocked at room temperature for 1 hour, and then the luminescence was measured with a plate reader.
The luminescence of the sample in the plate was measured with a Synergy Neo2 instrument.
The Delta RLU (relative luminescence unit) (ΔRLU) was calculated as follows.
ΔRLU=RLUsample−RLUblank=Signal−background luminescence
In addition, the fold induction relative to the control group was calculated as follows.
The EC50 values were obtained based on fold induction values by each concentration using GraphPad Prism 8, as follows (curve-fitting of the log (agonist) vs. normalized response−variable slope equation).
In order to test the activity levels of the native FGF21 and the FGF21 analogue at the cellular level (in vitro), the FGFR1/KLB functional assay was performed in the same manner as in Test Example 2.

Sequence of FGFR1/KLB (P11362 22-822): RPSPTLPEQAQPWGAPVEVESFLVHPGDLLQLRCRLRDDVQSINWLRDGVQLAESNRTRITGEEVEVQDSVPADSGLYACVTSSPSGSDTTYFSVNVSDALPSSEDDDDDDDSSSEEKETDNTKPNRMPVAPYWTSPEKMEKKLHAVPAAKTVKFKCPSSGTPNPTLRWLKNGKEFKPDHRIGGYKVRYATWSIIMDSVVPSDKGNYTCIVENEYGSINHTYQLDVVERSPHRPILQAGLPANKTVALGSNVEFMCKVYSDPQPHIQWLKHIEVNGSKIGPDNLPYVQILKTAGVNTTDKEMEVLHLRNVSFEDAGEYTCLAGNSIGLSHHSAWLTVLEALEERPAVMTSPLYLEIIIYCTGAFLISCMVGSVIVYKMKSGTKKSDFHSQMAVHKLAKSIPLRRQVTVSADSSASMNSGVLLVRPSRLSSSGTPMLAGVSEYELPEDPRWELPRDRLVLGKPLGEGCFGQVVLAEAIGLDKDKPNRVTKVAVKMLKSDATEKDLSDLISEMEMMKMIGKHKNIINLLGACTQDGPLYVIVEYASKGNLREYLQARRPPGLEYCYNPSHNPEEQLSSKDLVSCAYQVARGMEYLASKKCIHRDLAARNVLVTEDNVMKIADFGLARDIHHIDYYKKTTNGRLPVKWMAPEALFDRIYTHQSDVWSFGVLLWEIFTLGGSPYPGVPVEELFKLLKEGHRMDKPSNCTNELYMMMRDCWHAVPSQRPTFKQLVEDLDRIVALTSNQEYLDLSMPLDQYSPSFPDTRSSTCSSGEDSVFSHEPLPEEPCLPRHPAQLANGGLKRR
Sequence of FGFR1/KLB (Q86Z14 whole entry): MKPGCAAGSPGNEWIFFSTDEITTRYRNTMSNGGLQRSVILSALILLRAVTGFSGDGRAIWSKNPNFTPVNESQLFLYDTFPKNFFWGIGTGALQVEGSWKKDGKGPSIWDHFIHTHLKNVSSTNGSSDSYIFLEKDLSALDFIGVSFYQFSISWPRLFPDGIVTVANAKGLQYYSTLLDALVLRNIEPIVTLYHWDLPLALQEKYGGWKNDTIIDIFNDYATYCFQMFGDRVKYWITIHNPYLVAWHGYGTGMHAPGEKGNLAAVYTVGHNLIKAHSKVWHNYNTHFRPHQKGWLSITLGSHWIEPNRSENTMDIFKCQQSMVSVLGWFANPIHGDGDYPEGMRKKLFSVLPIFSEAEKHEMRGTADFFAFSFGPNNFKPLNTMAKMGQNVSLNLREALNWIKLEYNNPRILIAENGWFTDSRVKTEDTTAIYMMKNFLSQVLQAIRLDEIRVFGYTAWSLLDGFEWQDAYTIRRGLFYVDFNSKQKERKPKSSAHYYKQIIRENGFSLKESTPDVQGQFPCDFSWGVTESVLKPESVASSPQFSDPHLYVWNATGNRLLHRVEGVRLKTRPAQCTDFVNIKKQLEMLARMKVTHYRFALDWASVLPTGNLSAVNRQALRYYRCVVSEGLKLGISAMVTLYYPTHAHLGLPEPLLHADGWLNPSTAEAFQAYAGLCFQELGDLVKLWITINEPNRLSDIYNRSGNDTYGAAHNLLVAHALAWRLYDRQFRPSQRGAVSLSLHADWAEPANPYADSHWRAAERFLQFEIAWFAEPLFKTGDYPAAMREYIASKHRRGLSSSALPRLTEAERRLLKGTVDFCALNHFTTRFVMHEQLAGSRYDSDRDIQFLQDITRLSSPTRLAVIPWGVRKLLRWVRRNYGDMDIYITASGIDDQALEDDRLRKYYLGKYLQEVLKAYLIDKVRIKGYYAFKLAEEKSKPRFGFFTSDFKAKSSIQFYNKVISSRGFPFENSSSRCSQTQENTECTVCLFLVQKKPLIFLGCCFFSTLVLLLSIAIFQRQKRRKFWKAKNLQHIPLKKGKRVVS

EC50 (Test Example 2, mean of 2 runs, read-out: EC50, Mean): 0.82 nM | EC50 (Test Example 2, run 1, read-out: EC50, 1): 0.75 nM | EC50 (Test Example 2, run 2, read-out: EC50, 2): 0.88 nM | EC50 (Test Example 9 screening, read-out: EC50): 1.17 ± 0.56 nM
B1: rhFGF21: native FGF21, SEQ ID NO: 17 (protein)
chain: HPIPDSSPLLQFGGQVRQRYLYTDDAQQTEAHLEIREDGTVGGAADQSPESLLQLKALKPGVIQILGVKTSRFLCQRPDGALYGSLHFDPEACSFRELLLEDGYNVYQSEAHGLPLHLPGNKSPHRDPAPRGPARFLPLPGLPPALPEPPGILAPQPPDVGSSDPLSMVGPSQGRSPSYAS
modifications: FGF21 native
